“Also recorded” adds a separate entry of the source.
T1: endogenous PTP1B-OX (Homo sapiens, UniProt P18031)
T1 construct: endogenous in cells; host or cells: 293T cells (transfected only with the scFv intrabody)
T1 sequence (P18031 1-435): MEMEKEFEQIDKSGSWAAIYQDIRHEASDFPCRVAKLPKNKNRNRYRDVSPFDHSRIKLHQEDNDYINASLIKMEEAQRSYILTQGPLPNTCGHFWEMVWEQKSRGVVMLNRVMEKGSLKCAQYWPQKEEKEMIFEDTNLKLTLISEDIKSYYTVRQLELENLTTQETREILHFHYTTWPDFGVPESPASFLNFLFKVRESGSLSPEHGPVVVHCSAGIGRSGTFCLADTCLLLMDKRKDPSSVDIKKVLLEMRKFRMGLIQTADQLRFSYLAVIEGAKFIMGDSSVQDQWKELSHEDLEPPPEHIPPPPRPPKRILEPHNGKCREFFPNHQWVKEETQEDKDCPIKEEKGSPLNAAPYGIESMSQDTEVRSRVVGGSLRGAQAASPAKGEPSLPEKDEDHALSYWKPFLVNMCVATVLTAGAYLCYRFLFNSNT

T2: endogenous PTP1B under reducing conditions (Homo sapiens, UniProt P18031)
T2 construct: endogenous in cells; host or cells: 293T cells (transfected only with the scFv intrabody)
T2 sequence (P18031 1-435): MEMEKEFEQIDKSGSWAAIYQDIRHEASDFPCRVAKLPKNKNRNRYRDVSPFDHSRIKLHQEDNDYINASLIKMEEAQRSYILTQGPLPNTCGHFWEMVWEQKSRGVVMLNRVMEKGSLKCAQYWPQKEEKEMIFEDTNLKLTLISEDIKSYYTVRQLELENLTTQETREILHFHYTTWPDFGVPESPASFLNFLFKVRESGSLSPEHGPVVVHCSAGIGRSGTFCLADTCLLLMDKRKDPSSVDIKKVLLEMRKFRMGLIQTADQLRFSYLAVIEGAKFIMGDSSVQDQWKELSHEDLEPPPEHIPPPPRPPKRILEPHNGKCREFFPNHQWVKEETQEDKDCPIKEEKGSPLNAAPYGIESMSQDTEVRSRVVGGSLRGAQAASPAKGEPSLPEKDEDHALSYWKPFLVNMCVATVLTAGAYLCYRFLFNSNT


Columns and labels:
endogenous PTP1B-OX = molecular target: T1, endogenous PTP1B-OX; experiment: Intrabody interaction in 293T cells treated with H2O2 (Ni-NTA pull down / anti-PTP1B immunoprecipitation); format: cell-based; conditions: 1 mM H2O2 5 minutes, FIGS. 11, 12
Procedure, shortened: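 293T cells transiently expressing HA-detected scFv intrabodies, serum-starved 16 h, then 1 mM H2O2 for 5 min or 20 mM NAC for 1 h at 37 °C (NAC lysates with 2 mM TCEP). Complexes from 1 mg lysate captured by Ni-NTA pull-down or anti-PTP1B (FG6) IP; PTP1B and intrabody detected by immunoblot.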

[1] = molecular target: T2, endogenous PTP1B under reducing conditions; experiment: Intrabody interaction in 293T cells under reducing condition (NAC, TCEP) (Ni-NTA pull down / immunoprecipitation); format: cell-based; conditions: 20 mM NAC, lysis buffer with 2 mM TCEP, FIGS. 11, 12
Procedure: One of the positive candidate scFvs (scFv45) was cloned in pcDNA3.2/V5-GW/D-TOPO expression vector and transiently expressed in mammalian cells as stable intracellular antibody (aka intrabody) (FIG. 10). To detect PTP1B-OX and scFv45 interaction in mammalian cells, scFv45 was overexpressed in 293T cells as described herein (See Example 4) and 48 hours post transfection the cells were serum-starved for 16 hours in growth medium (DMEM, low glucose) without serum (FBS), then incubated with 1 mM H2O2 (in growth medium without serum) for 5 minutes at 37° C. or treated with 20 mM NAC (in growth medium without serum) for 1 hour at 37° C. Cells treated with H2O2 were washed twice with cold (4° C.) PBS and lysed in lysis buffer (25 mM HEPES, pH 7.4, 150 mM NaCl, 0.25% Deoxychloate, 1% TritonX-100, 25 mM NaF, 10 mM MgCl2, 1 mM EDTA, 10% Glycerol, 0.5 mM PMSF, 10 mM Benzamidine, protease inhibitor cocktail). Cells treated with NAC were lysed with lysis buffer containing 2 mM TCEP to ensure a post-lysis reducing environment. Interaction between PTP1B and intrabody45 were tested by pulling down the protein complex from 1 mg of total cell lysate with Ni-NTA agarose or by immunoprecipitating PTP with anti-PTP1B (FG6). For the pull down experiment, Ni-NTA agarose beads were incubated with the lysates (both oxidized and reduced) at 4° C. Protein complex bound to the Ni-NTA agarose beads was pulled down and washed three times; first with lysis buffer containing 20 mM imidazole followed by two more washes with wash buffer (PBS, pH 7.4, 20 mM imidazole, 0.05% BSA, 0.05% Tween-20 and protease inhibitors). Applicant used 20 mM imidazole in the wash buffer to reduce the non-specific binding of proteins with the Ni-NTA agarose beads. The complex was eluted with wash buffer containing 500 mM imidazole with gentle shaking at 4° C. and the eluate was mixed with SDS sample buffer with DTT. For the immunoprecipitation experiments, 1 mg of total cell lystates (both oxidized and reduced) was incubated with anti-PTP1B antibody (FG6) at 4° C. The interacting protein complex was immunoprecipitated after incubating the lysate-antibody mixture with protein A/G Sepharose at 4° C. After immunoprecipitation, Sepharose beads were washed three times; first with lysis buffer followed by two more washes with wash buffer (PBS, pH 7.4, 0.05% BSA, 0.05% Tween-20 and protease inhibitors). The Sepharose beads were then heated at 90° C. in 2×SDS sample buffer with DTT. Proteins from the pulled down or immunoprecipitated complex were separated by SDS-PAGE. PTP was detected with anti-PTP1B antibody (FG6) and the intrabodies were detected with anti-HA (3F10)-HRP antibody [anti-HA (3F10)-HRP, Roche] by immunoblotting.
In the initial in vitro phosphatase screening assay using reversibly oxidized (with H2O2) recombinant PTP1B, Applicant found four different PTP1B-OX specific scFvs (scFv45, scFv57, scFv64 and scFv106) from the initial pool of 12 different scFvs. […] Applicant has also shown that scFv45, expressed as an intrabody in mammalian cells, can bind to endogenous PTP1B-OX but not endogenous PTP under reducing conditions. Further assessment was carried out to identify additional PTP1B-OX-specific intrabodies. Additional scFvs have been subcloned in pcDNA3.2/V5-GW/D-TOPO mammalian expression vector (FIG. 10) from their respective phagemid constructs. […]

| Molecule | binding of intrabody to endogenous PTP1B-OX (endogenous PTP1B-OX) | binding of intrabody to endogenous PTP1B under reducing conditions [1] |
| --- | --- | --- |
| scFv45: conformation-sensor scFv binding PTP1B-OX, SEQ ID NO: 26 and 78; expressed as intrabody (protein) scFv: MKKTAIAIAVALAGFATVAQAALTQPSSVSANPGGTVKITCSGSSSAYGYGWYQQKSPGSAPVTVIYNNNKRPSNIPSRFSGSKSGSTGTLTITGVQAEDEAVYFCGSEDSSTDAIFGAGTTLTVLGQSSRSSTVTLDESGGGLQAPGGALSLVCKASGFTFSSYDMGWIRQAPGKGLEYVAGITDNGRYASYGSAVDGRATISRDNGQSSVRLQLNNLRAEDTGTYYCARDDGSGWTGNSIDAWGHGTEVIVSSTSGQAGQHHHHHHGAYPYDVPDYAS | interaction between scFv45 and PTP1B-OX was observed; also recorded: co-pulldown of PTP1B-OX in the presence of H2O2 | not in the cells that were under reducing condition; also recorded: not in the presence of NAC and TCEP |
| scFv57: scFv binding PTP1B-OX, SEQ ID NO: 27 and 90 (protein) scFv: MKKTAIAIAVALAGFATVAQAALTQPSSVSANPGAFNKITCSGSSSAYGYGWNQQKSPGSAPVTVIYNNNKRPSNIPSRFSGSKSGSTGTLTITGDQDEDEDFYFCGSEYSSTDAIFGAGTTLTVLGQSSRSSTVTLDESGGGLQAPGGALSLVCKASGFTFSSYDMGWIPQAPGKGLEYVAGITDNGIYASYGSAVDGRATISRDNRQSSVKLQLNNLKADDTGTYYCARDDGSGWTGNSIDAWGHGTEVIVSSTSGQAGQHHHHHHGAYPYDVPDYAS | bound to endogenous PTP1B-OX strongly | – |

Reference: US9074002B2, “PTP1B inhibitors” (Cold Spring Harbor Laboratory, priority 2009, dated 2015)
